Data on three molecules can be found in publication PMC9398005, “A Drosophila Su(H) model of Adams-Oliver Syndrome reveals cofactor titration as a mechanism underlying developmental defects”.

Series [1] addresses Flag-Rbpj WT full length (mouse, UniProt P31266 1-526). In words: EMSA; poly(dI-dC); single and double occupancy; anti-Flag supershift; ITC: 50 mM sodium phosphate, 150 mM NaCl, 10 C (pH not stated); EMSA purified: 3.4 nM probe, 10 min room temperature; EMSA IVT: 10 mM Tris-HCl pH 7.5, 100 mM NaCl, 0.1 mM EDTA, 0.5 mM DTT, 4% glycerol, poly(dI-dC). As to conditions: protein: ivt; tags: Flag; label: 32P; 5' overhang 4 nt both ends. A general note: In EMSA bound probe runs differently from free probe, usually more slowly.

Series [2] has as its target T1, Rbpj WT (core) (mouse, UniProt P31266 53-474). In words: ITC; 10 C; ITC: 50 mM sodium phosphate, 150 mM NaCl, 10 C (pH not stated); EMSA purified: 3.4 nM probe, 10 min room temperature; EMSA IVT: 10 mM Tris-HCl pH 7.5, 100 mM NaCl, 0.1 mM EDTA, 0.5 mM DTT, 4% glycerol, poly(dI-dC). The note with it: protein: recombinant; tags: GST removed by PreScission (pGEX-6P1); blunt. A general note: ITC needs no label: the signal is the heat of the interaction.

In series [3] the target is Rbpj E89G (mouse, UniProt P31266 53-474, E89G). The series is described as above. As to conditions: protein: recombinant; tags: GST removed by PreScission (pGEX-6P1); blunt.
Series [4] has as its target Rbpj K195E (mouse, UniProt P31266 53-474, K195E). The series is described as above. As to conditions: protein: recombinant; tags: GST removed by PreScission (pGEX-6P1); blunt.
Series [5] deals with T1, Rbpj WT (core). Nature of the series: EMSA; ITC: 50 mM sodium phosphate, 150 mM NaCl, 10 C (pH not stated); EMSA purified: 3.4 nM probe, 10 min room temperature; EMSA IVT: 10 mM Tris-HCl pH 7.5, 100 mM NaCl, 0.1 mM EDTA, 0.5 mM DTT, 4% glycerol, poly(dI-dC). The note with it: protein: recombinant; tags: GST removed by PreScission (pGEX-6P1); label: IRDye-700 at 5' end of strand 2; blunt.

T1 sequence (P31266 53-474): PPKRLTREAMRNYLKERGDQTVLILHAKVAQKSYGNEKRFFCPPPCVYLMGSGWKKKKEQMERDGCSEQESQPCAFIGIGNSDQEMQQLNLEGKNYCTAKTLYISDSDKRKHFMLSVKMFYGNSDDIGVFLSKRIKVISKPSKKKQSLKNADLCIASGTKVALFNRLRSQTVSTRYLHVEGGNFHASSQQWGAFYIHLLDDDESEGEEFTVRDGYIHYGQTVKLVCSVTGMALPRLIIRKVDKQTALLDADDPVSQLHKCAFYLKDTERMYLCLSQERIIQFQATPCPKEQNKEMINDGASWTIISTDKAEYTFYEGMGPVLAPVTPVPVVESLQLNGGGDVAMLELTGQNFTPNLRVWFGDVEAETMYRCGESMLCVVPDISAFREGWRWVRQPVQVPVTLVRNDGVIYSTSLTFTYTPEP
Sequence of Rbpj K195E (P31266 53-474 K195E): as the sequence (P31266 53-474) above, with K143E counted along it
Sequence of Rbpj E89G (P31266 53-474 E89G): as the sequence (P31266 53-474) above, with E37G counted along it
Sequence of Flag-Rbpj WT full length (P31266 whole entry): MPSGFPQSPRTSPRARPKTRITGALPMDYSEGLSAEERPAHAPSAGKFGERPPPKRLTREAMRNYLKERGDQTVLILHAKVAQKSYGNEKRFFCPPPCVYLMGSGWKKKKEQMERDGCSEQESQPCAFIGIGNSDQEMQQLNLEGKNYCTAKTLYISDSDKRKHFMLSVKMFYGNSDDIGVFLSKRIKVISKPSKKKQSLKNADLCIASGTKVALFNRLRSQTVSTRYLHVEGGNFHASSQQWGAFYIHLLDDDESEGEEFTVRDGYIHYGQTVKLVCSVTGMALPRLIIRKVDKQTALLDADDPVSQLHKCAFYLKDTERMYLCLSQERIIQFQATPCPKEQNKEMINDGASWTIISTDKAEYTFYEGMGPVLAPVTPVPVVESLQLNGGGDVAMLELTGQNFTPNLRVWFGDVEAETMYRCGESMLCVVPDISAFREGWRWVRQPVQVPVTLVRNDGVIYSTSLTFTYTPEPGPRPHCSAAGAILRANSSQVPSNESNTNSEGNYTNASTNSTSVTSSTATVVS

B1: EMSA probe with 2 RBPJ sites (dsDNA)
DNA 1: CCTGGAACTATTTTCCCACGGTGCCCTTCCGCCCATTTTCCCACGAGTCG
DNA 2: CTCGCGACTCGTGGGAAAATGGGCGGAAGGGCACCGTGGGAAAATAGTTC
Consider B1, for which, in series [1], the binding result was “binds”.

B2: ITC 20-mer CSL duplex (dsDNA)
DNA 1: GGCACCGTGGGAAACTAGTG
DNA 2: CACTAGTTTCCCACGGTGCC
Take B2: the dissociation constant Kd (in general, the equilibrium constant for the complex coming apart) in series [2] was 74 ± 10.8 nM; in series [3] it was 440 ± 86.8 nM; in series [4] it was 1160 ± 258 nM.

B3: EMSA high affinity CSL probe (dsDNA)
DNA 1: CGAACGAGGCAAACCTAGGCTAGAGGCACCGTGGGAAACTAGTGCGGGCGTGGCT
DNA 2: AGCCACGCCCGCACTAGTTTCCCACGGTGCCTCTAGCCTAGGTTTGCCTCGTTCG
Consider B3, for which the binding result in series [5] is on record as “binds”.
